Consider three molecules from patent publication US20190300618A1 (Merck Sharp & Dohme, published 2019).

Common to all, as to assay: flow cytometry, CHO-K1; sub-column 1 of 2
One test addresses T1, W13A.
T1 construct: also called hCD27 W13A
T1 receptor: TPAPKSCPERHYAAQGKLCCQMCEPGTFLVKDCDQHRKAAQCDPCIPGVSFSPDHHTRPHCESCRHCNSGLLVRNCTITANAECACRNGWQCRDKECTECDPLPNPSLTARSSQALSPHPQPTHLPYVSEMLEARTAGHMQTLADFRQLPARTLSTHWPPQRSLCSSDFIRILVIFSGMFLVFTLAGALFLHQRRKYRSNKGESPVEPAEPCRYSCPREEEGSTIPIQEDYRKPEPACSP

The target of the next test is T2, K17A.
T2 construct: also called hCD27 K17A
T2 receptor: T1 receptor with A13W, K17A

The target of another test is T3, V30A.
T3 construct: also called hCD27 V30A
T3 receptor: T1 receptor with A13W, V30A

The target of a further test is T4, K31A.
T4 construct: also called hCD27 K31A
T4 receptor: T1 receptor with A13W, K31A

Another test concerns the target T5, D32A.
T5 construct: also called hCD27 D32A
T5 receptor: T1 receptor with A13W, D32A

A further test has as its target T6, K38A.
T6 construct: also called hCD27 K38A
T6 receptor: T1 receptor with A13W, K38A

Another test addresses T7, S63A.
T7 construct: also called hCD27 S63A
T7 receptor: T1 receptor with A13W, S63A

In the next test the target is T8, R87A.
T8 construct: also called hCD27 R87A
T8 receptor: T1 receptor with A13W, R87A

Another test concerns the target T9, Q91A.
T9 construct: also called hCD27 Q91A
T9 receptor: T1 receptor with A13W, Q91A

The next test deals with T10, E9A.
T10 construct: also called hCD27 E9A
T10 receptor: T1 receptor with E9A, A13W

Where a chain is given by its changes, count along the chain named.

Turning to 1A4 (mouse IgG1) (antibody), the % of WT hCD27 binding (geo mean FITC) with W13A amounted to 89.1%; in the test with K17A it was 32.4%; with V30A it was 161%; with K31A, 194%; with D32A it was 43.7%; with K38A, 104%. Moreover, the % of WT hCD27 binding (geo mean FITC) with S63A stood at 158%; with R87A, 143%; with Q91A it was 146%; in the test with E9A it was 98.2%.
As for 9F4 (mouse IgG2a) (antibody), the % of WT hCD27 binding (geo mean FITC) with W13A worked out at 90.7%; in the test with K17A, 98%; with V30A, 166%; with K31A, 207%; with D32A, 118%; in the test with K38A, 44.7%. Further, the % of WT hCD27 binding (geo mean FITC) was determined as 153% with S63A, 153% with R87A, 149% with Q91A and 96.6% with E9A.

B1: Antibody hCD27.131A (mouse parental 131A) (antibody, V domains shown)
VH: QIQLVQSGPELKKPGETVKISCKASGYTFTNYGMNWVKQAPGKGLKWMGWINTNTGEPTYAEEFKGRFAFSLETSATTAYLQINNLKNEDTATYFCAREGDAMDYWGQGTSVTVSS
VL: QIVLTQSPAIMSASPGEKVTMTCSASSSVSYMHWYQQKSGTSPKRWIYDTSKLASGVPARFSGSGSGTSYSLTISSMEAEDAATYYCQQWNSYPFTFGSGTKLEIK
notes: mouse IgG1; also called mouse hCD27.131A
As to B1, the “% of WT hCD27 binding (geo mean FITC)” value came to 86% in the test with W13A; 103% with K17A; 170% with V30A; 203% with K31A; 113% with D32A; 48.2% with K38A. The “% of WT hCD27 binding (geo mean FITC)” value was 162% in the test with S63A, 153% in the test with R87A, 148% with Q91A and 96.7% with E9A.
